Source: the DeepSol protein solubility set

Test: soluble on expression in E. coli; label from the status in PepcDB or PDB records

Row | Sequence | soluble on expression in E. coli
1 | MEVAPEQPRWMAHPAVLNAQHPDSHHPGLAHNYMEPAQLLPPDEVDVFFNHLDSQGNPYYANPAHARARVSYSPAHARLTGGQMCRPHLLHSPGLPWLDGGKAALSAAAAHHHNPWTVSPFSKTPLHPSAAGGPGGPLSVYPGAGGGSGGGSGSSVASLTPTAAHSGSHLFGFPPTPPKEVSPDPSTTGAASPASSSAGGSAARGEDKDGVKYQVSLTESMKMESGSPLRPGLATMGTQPATHHPIPTYPSYVPAAAHDYSSGLFHPGGFLGGPASSFTPKQRSKARSCSEGRECVNCGATATPLWRRDGTGHYLCNACGLYHKMNGQNRPLIKPKRRLSAARRAGTCCANCQTTTTTLWRRNANGDPVCNACGLYYKLHNVNRPLTMKKEGIQTRNRKMSNKSKKSKKGAECFEELSKCMQEKSSPFSAAALAGHMAPVGHLPPFSHSGHILPTPTPIHPSSSLSFGHPHPSSMVTAMG | soluble
2 | MEVDTSSSSSSEDECDPSSPSTAYIHSASVRLSVGTEEAARTVADVIKIDKEPRRSGARREVCSEGEFVVIKIESKDPKSLSKSIANAVDMIDLSVKTIKLCENLGKSKENGLKRKLSNGSQA | not soluble
3 | MEVHDSDAYKADEKEEEKAEEVELDDSDVESEEESEDEESDEDPEDGPAPRRFETFDDAKQFWAEHFEEELIPNEDLDLNCYLFNPNGEPVVPQPVKRAMNPRSLFNNQRPVQVYHQRWELLPNEEAEHWKEMWVQMRDEQREQIEEQLIEFRYSSKS | not soluble
4 | MEVIRSQKRTVSNDVVSTPTLPLYLTAPHMEVRLEEFELFAIDRLRVLKGVSDGLARARNPNEMDDLVETLWKEHMRLSNVSEMINKDIISHFVLRLVYCRSDELKKWFLSMETALFRHRFRLKKIEEQRAIVGEFGLPYKAVIGAELESLKERLGLVARSHGQISSDVENIYYKVPFEEVPDLVASRRVLLQKGFAFVAGTQLVSLVVTQFRSHLSKALILTNRKWTTTIREREKDRLTPIVEALSTSYLGPDYSQSNEYADISLKDIDQVSKSSFPLCMRHLFEKLREDHHLKHGGRMQLGLFLKLDDALAFWREEFTKKVGSERFDKEYAYAIRHNYGKEGKRTDYTPYACSKIITSAPGAGDHHGCPYRHFSEDNLKAALSRMGLSSRGMEDVMDKVRNRHYQLACTLTFEAVYGTSCDTGINHPNQYFEESQKILKSKTPAAPV | soluble
5 | MEVLHKPVLLRESVEFLTENGGKIYVDCTLGGGGHAKEILKKRKDIFLIGIDRDEEAIEIAKENLKEFEGRFSIYKANFKDLDLVLKEEGIDKVDGFLFDLGVSMYQLKGERGFTFQEDQPLDMRMDKEQTLTACKVVNNYPERELIRILKEYGEEKFAVRIAKAIVQRRKKKPIETTGELVDVILSVVPEYYKHGKIHPATRTFQAIRIEVNKELESLKEALEKTPYHFNSKGRLVVITFHSLEDRIVKHFIKEKEKEGIFRIITKKPVTPSEEEIRENPASRSAKLRVAEKI | soluble
6 | MEVQFKNTRKGYYLNSERIELHKGDVVAVEANPGHDIGTVTLTGKLVKLQMRKHRYNTNNGEPFKIYRIAKQGDLDKYCEAKAREYDTMIQSRQISAELNLDMKIGDVEYQGDGNKAIFYYIADERVDFRQLIRVLAETFHIRVEMKQIGARQEAGRIGGIGPCGRQLCCSAWKMNFVSVNTSAARYQDLALNPQKLTGLCAKLKCCLNYEVDAYVEARKKMPSPEIVLETKESAYHYFKADVFRREVSYSTVPNAPVNLTTISARRAFEVISQNKQGFKPVSLEYDDKKQSSGHELSDILTDNSLTRFDDALSRRRRRNGNGNRDFSDREKAGEPHRTPDSIQPTPRVRSSSRMPSREKSPRPEGGDRRENMRERSRGDARFARPYTNEGGSERMEGARRVVGSGRRPPRQSTPRQEDRQGERKEELEHHHHHH | soluble
7 | MEVYMKKLINDKNNIVEEVVQGMIKAFPNKVSRVENEPIIIRKNKKVNKVALISGGGSGHEPAHAGYVGYGMLDAAVCGEIFTSPGADKVYSAIKAVDAGKGVLLIIKNYSGDVMNFEMAGEMAQAEGITVKQVVVDDDIAVENSTYTVGRRGIAGTIFVHKILGAAAEKGYDLDKLVELGNKVVKNLKTMGMSLKPCTVFTTGKESFEIADDEVEIGLGIHGEPGTHREKMTTANEFTKKLFEKIYAESNVQNGDRFAVLVNGLGETTLIELFIINNHLQDLLKDKRIEVAKTLVGNYMTSLDMGGFSISLLKLDKEMEELLNAEEDTIAFLEHHHHHH | soluble
8 | MEYRMFDIGVNLTSSQFAKDRDDVVACAFDAGVNGLLITGTNLRESQQAQKLARQYSSCWSTAGVHPHDSSQWQAATEEAIIELAAQPEVVAIGECGLDFNRNFSTPEEQERAFVAQLRIAADLNMPVFMHCRDAHERFMTLLEPWLDKLPGAVLHCFTGTREEMQACVAHGIYIGITGWVCDERRGLELRELLPLIPAEKLLIETDAPYLLPRDLTPKPSSRRNEPAHLPHILQRIAHWRGEDAAWLAATTDANVKTLFGIAF | soluble
9 | MEYSQIPSFAFYNNASIFQFFPRNKRLNTHQKSCLDEHARKMAVFMMERQEEYRYYENLANQEQFSDDACFSDTGMDSGFCSGATSTGQSASTSPAPAHLIPNPFFDPEYVAKAQSPVKLVANPFYNPELVKEIKKKSRVSV | not soluble
10 | MFAKVHPAEDVKSGNTGSCHDLVRYLEKETGEGQRFFSHTEQDISPERVIMDIDGNKKALGANDAKFFMLSLNPSQSEQMHLIGRKVDDFKELTPQEKKEVFQKLEAFTRSAMDEYALNFGRDNIRGGQDLMYYARVETERSYHPEDEEVKQGIARIGEPKPGLNLHVHVIVSRKSLDGKVKLSPGAKSAGNTWELEGRGTVKRGFSHEGWKVRVQECFNRKFDYQA | not soluble
11 | MFDDQDEIHPLLAGAPQTTEFRKLRKRIVREVREAIETYGMVERGARWLVCLSGGKDSYTLLAVLHELKWRGLLPVDLLACNLDQGQPGFPATVLPEFLSRMGVPHRIEYQDTYSIVMDKIPQGRTYCALCSRLRRGNLYRIAREEGCSAVVLGHHRDDILETFFMNLFHGGRLATMPPKLVNEDGDLFVYRPLAFVAEADCEKFARDMAYPIIPCDLCGSQEGLQRQQVKQILDGWEARSPGRRQVMFRALMNARPSHLLDPGLFDFLGLATAPRASEERQDEPPHLRGEA | not soluble
12 | MFDPPALKNSVISFLNKRRHSSGGYTLYEGLPDSKNTYYAIRSFEVLDHEPPRLEETLDWLEDVHRGGTFAAQGLFYRCSILRDYGRNFEIPEKFTEMLRTSYRKSSLEITFYMDSVLRMHGEYLDEIPEWVLSIQNEDGGFGAYGSDIINTRFALEILNGHGMKIPGDEVLQFTDSCFSDGAWNFTPISYPPYIETVHSGFRINEILRGKVSDVTRFIMKIRNPDGGFRRSVYMGISEPEYTYRAIYMLASIHGW | not soluble
13 | MFGGDTLYELRCSLQLAETEREGGFSPHISPFTAVNDLGHLLGRAGFNTLTVDTDEIQVNYPGMFELMEDLKGMGESNCSWNRKALLHRDTMLAAAAVYREMYRNEDGSIPATFQIYHMIGWKYHDSQARPAERGSATVSFGELAKLNDVMSHEKK | soluble
14 | MFHCPLCQHAAHARTSRYITDTTKERYHQCQNVNCSATFITYESVQRYIVKPGEVHVVRPHPLPSGQQIMWM | soluble
